Results on 22 sequences are retold here after the supplement of paper PMC9170038.

The data set has as its system MS2 coat protein. Put plainly: apparent KD of MS2 coat protein; designed switch direction (-1 OFF switch, 1 ON switch): -1; higher = weaker reporter binding. The method, boiled down:
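RNA switches sharing common flanks were transcribed by stalled E. coli RNA polymerase on Illumina chips. A doubling series of SNAP-549-labelled MS2 coat protein, from 0.7 or 1.5 nM to 3 µM, was applied in Tris-HCl pH 7.5 buffer with KCl, MgCl2, BSA, DTT, tRNA and Tween-20. Each step lasted 0.8–1.5 h at the bottom of the series and 10–20 min at the top. Normalised cluster fluorescence was curve-fitted, giving apparent KD as the per-design median over clusters.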

Where [1] appears, read: input ligand: microRNA oligo, concentration not stated.
Where [2] appears, read: Eterna round: R95, input ligand: FMN 200 uM.
[3] abbreviates: Eterna round: R95, input ligand: microRNA oligo, concentration not stated.
[4] abbreviates: Eterna round: R95, input ligand: none.

Turning to “CCCGUCGAUGUAGGAUAUGCCCGGGUCUCCCGGGCAGAAGGACAUGAGGAUCACCCAUGUUCAUGAGGAUCACCCGUGAAUGGG [Double but mutated MS2] (Eterna round: R96, puzzle: Exclusion NG 1)”, the “apparent KD of MS2 coat protein” value reads like this: (input ligand: FMN 200 uM) 13.1 nM; under setting [1], 13 nM; (input ligand: none) 16.3 nM.
Turning to “GCUGGUCAAGGAUAUACAUUCGUGCUUCGGCACGUAAGAUCACAUGAGGAUCACCCAUGUAGAAGGUGACCAGC [E2/5-C1] (Eterna round: R97, puzzle: Exclusion 2)”, the “apparent KD of MS2 coat protein” value (input ligand: FMN 200 uM) turned out to be 700 nM and the “apparent KD of MS2 coat protein” value (input ligand: none) came out at 112 nM.
With “CUUCUGUCAGGAUAUGCGAAUCACCGCUGGGUCAGCGGCGAGCAGAAGGGACAUGAGGAUCACCCAUGUAAAAU [Quriveer] (Eterna round: R97, puzzle: Exclusion 4)”, the “apparent KD of MS2 coat protein” value runs as follows: (input ligand: FMN 200 uM) 211 nM; (input ligand: none) 51.3 nM.
Take “AAUGGUAAAGUCAGGAUAUACGUACGUCGUUCUAGGUAGAAGGGACAUGAGGAUCACCCAUGUAUGAUAGUAAA [Ex4 #34] (Eterna round: R97, puzzle: Brourd's mod of Exclusion 4)”: the “apparent KD of MS2 coat protein” value is, setting by setting: (input ligand: FMN 200 uM) 24.1 nM; (input ligand: none) 32.9 nM.
The corresponding values for “GGCAUCGGAGGAUAUACUUAUGGUGAUACCAGAAGCUUUCUACUUGAGGAUCACCCAAGUAGAAGGCCGAUGCC [jl-ex2.4.86 ViennaUCT mod] (Eterna round: R97, puzzle: Exclusion 2)” are 17.5 nM and 26.2 nM.
For “CCAAGCUUUUUCAUUAACAACAUGAGGAUCACCCAUGUUUAAGCUAUUACUUUUGGGCUCUUUAGUGCUAGUCUUAU [JR_STOV1_Sub039] (Eterna round: R97, puzzle: Sensor, turn-off variant 1)”, the “apparent KD of MS2 coat protein” value by setting is: (input ligand: FMN 200 uM) 18.6 nM; (input ligand: none) 19.4 nM.
Turning to “GUCGUGCGGCUGUGCUGUACGAGUACAUGAGGAUCACCCAUGUAGGAUAUGGUUCGUUUUGCGUGCUAGAAGGGCGUGCGUUUU [Excl-NG3-LRO17] (Eterna round: R96, puzzle: Exclusion NG 3)”, the “apparent KD of MS2 coat protein” value stood at 17.9 nM (input ligand: FMN 200 uM), 17 nM under setting [1] and 21.4 nM (input ligand: none).
As for “GGGAGGGAUACAGGAUAUAUGACAUGAGGAUACAUGAGACAUACAAACAUGAGGAUCACCCAUGUAUAGAAGGGUAAGGGAGGG [Another guess] (Eterna round: R96, puzzle: Exclusion NG 2)”, under setting [1], the “apparent KD of MS2 coat protein” value was determined as 126 nM.
“AGUAAGCUAGGAUAUGCUUAGGGAAAGCCUUCCUUCCACAAACUUGAGGAUCACCCAAGUAGAAGGAGCUAAAU [jl-ex2.4.46 ViennaUCT mod] (Eterna round: R97, puzzle: Exclusion 2)”: the “apparent KD of MS2 coat protein” value turned out to be 15.4 nM (input ligand: FMN 200 uM) and 13.5 nM (input ligand: none).
For “CCAAGCUUUUUCAUUAACAACAUGAGGAUCACCCAUGUGUAAGCAAUUAUGUUUGGGCUCUUUAGUGCUCGUCUUAU [JR_STOV1_Sub042] (Eterna round: R97, puzzle: Sensor, turn-off variant 1)”, the “apparent KD of MS2 coat protein” value (input ligand: FMN 200 uM) was found to be 17.4 nM and the “apparent KD of MS2 coat protein” value (input ligand: none) stood at 16.7 nM.
Taken in the same sequence, the figures for “UUAAGUUCAGGAUAUGAUGAAUUAAACAUGAGGAUCACCCAUGUAGAUCCUGAAUUAACAUCAGAAGGGAAUAUUU [JL-ex5-4.52 Brourd mod] (Eterna round: R97, puzzle: Exclusion 5)” were 24.4 nM and 13.5 nM.
Turning to “GUUGCUACUGAGGAUAUUAUUUUACUCGACUGAUAAGAAGGCAGUACAUGAGGAUCACCCAUGUGGGUAGCCAG [Polaris16] (Eterna round: R97, puzzle: Exclusion 6)”, the “apparent KD of MS2 coat protein” value was 64.7 nM (input ligand: FMN 200 uM) and 19.3 nM (input ligand: none).
Regarding “ACAUGAGGAUCACCCAUGUAAUGAUGGGUACUAUAUUAUUCGUAGGAUAUCGUUGUUAGUUUGUGCGAGAAGGACGUUUGCCUU [JR_ExcNG3_Sub056] (Eterna round: R96, puzzle: Exclusion NG 3)”, the “apparent KD of MS2 coat protein” value (input ligand: FMN 200 uM) was 994 nM, the “apparent KD of MS2 coat protein” value under setting [1] is 667 nM and the “apparent KD of MS2 coat protein” value (input ligand: none) is 698 nM.
With “AGCGAAUAAGUAGGAUAUGAGAAUAGAUAGAGCUCAGAAGGACUACAUGAGGAUCACCCAUGUAAAGUCUUGAGGCUGCGUGGU [Prohibition 14 - Jieux - Exclusion NG 1] (Eterna round: R96, puzzle: Exclusion NG 1)”, the “apparent KD of MS2 coat protein” value is, setting by setting: (input ligand: FMN 200 uM) 10.8 nM; under setting [1], 11.3 nM; (input ligand: none) 13.7 nM.
With “UUAUAACAUGAGGAUCACCCAUGUUAGGAUAUCAGGUACGAGCGCCGUGCUCAGGCCCUGAGAAGGAGCAUGGC [Eternabot (L1) Solution 36] (Eterna round: R97, puzzle: Exclusion 1)”, the “apparent KD of MS2 coat protein” value reads like this: (input ligand: FMN 200 uM) 14.9 nM; (input ligand: none) 18.6 nM.
With “UGUCAGAUGGUAGGAUAUCCAUAUUGAGUGACCCUUUCAUAACAUGAGGAUCACCCAUGUCGGUGGGAGAAGGGCCGUAUGGUG [salish99_ExNG02_R04_028] (Eterna round: R96, puzzle: Exclusion NG 2)”, the “apparent KD of MS2 coat protein” value runs as follows: (input ligand: FMN 200 uM) 53.7 nM; under setting [1], 21.9 nM; (input ligand: none) 33.8 nM.
The corresponding values for “AAUUAUUGAUGAGGAUAUUGUGGUGAAACACGACAAGAAGGCAUUUUUCACAUGAGGAUCACCCAUGUGAGCCUUGUGCAUAUA [Ex NG1 #62] (Eterna round: R96, puzzle: Exclusion NG 1)” are 17.3 nM, 11.5 nM and 15.2 nM.
Take “CGGAUGUGAGGAUAUACAUGAGGAUCACCCAUGUGUGCCAGCUAGAUGACUGGCACUUGUAGAAGGCACGUCUG [Mat - Exclusion 3 - Mod of JL D91] (Eterna round: R96, puzzle: Exclusion 3)”: the “apparent KD of MS2 coat protein” value (input ligand: FMN 200 uM) worked out at 25.5 nM, the “apparent KD of MS2 coat protein” value under setting [1] turned out to be 11.3 nM and the “apparent KD of MS2 coat protein” value (input ligand: none) came out at 16.1 nM.
As to “AGAAGUAGUAUCCGAUCCUACAUGAGGAUCACCCAUGUAGCUAGACGUGCACGCGAUGCUCGUCAGACUACCAGAUG [salish99_TOv1_r3_030] (puzzle: Sensor v3, turn-off variant 1)”, the “apparent KD of MS2 coat protein” value came out at 156 nM under setting [2], 205 nM under setting [3] and 405 nM under setting [4].
On to “AAAGAUCAAGGAUAUGCAACGGCACACAUGAGGAUCACCCAUGUGAUGUACGUUGUGUCGGCAGAAGGUGAGGGUC [JR_Ex5_Sub056] (Eterna round: R97, puzzle: Exclusion 5)”, for which the “apparent KD of MS2 coat protein” value by setting is: (input ligand: FMN 200 uM) 13.8 nM; (input ligand: none) 14.3 nM.
On to “GGUCAAGAACAGAUCCGCGCUGCCCUCGACCGCUCAUUUACAUGAGGAUCACCCAUGUUUUUUGCUUGUCUUGUUAC [Vezageis] (puzzle: Sensor v3, turn-off variant 2)”, for which the “apparent KD of MS2 coat protein” value under setting [2] is 17.2 nM, the “apparent KD of MS2 coat protein” value under setting [3] is 57 nM and the “apparent KD of MS2 coat protein” value under setting [4] came out at 17.1 nM.
In the case of “UAAAAGACAGGAUAUACUAACAACGACUUGAGGAUCACCCAAGUGGUAAGAGUCGAUCAUGUAGAAGGGUUAAAAC [Atsoce] (Eterna round: R97, puzzle: Exclusion 5)”, the “apparent KD of MS2 coat protein” value was found to be 74.3 nM (input ligand: FMN 200 uM) and 28 nM (input ligand: none).
